Results published in patent publication US20220064291A1 (Merck Sharp & Dohme, published 2022).
Numbering of substitutions follows the chain as printed. Names may count otherwise.

B1: Antibody 1F (antibody, IgG1, V domains shown)
VH: QVQLQESGPGLVKPSQTLSLTCTVSGGSISSGGYYWSWIRQHPGKGLEWIGSIYYSGSTYYNPSLKSRVTISVDTSKNQFSLKLSSVTAADTAVYYCARLHSSQSSSTYWGQGTLVTVSS
VL: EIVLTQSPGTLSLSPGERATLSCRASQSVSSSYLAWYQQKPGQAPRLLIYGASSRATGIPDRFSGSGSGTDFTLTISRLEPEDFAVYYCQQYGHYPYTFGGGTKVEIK
notes: isotype hIgG1-297A (IgG1 N297A); kappa germline VK3-20.0
B2: Antibody 2L (antibody, IgG1, V domains shown)
VH: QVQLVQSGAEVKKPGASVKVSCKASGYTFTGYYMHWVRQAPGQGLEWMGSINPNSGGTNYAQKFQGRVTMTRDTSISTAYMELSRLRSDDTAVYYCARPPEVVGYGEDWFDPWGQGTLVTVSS
VL: DIQMTQSPSSVSASVGDRVTITCRASQGISSWLAWYQQKPGKAPKLLIYAASNLQSGVPSRFSGSGSGTDFTLTISSLQPEDFATYYCQQGNDLPITFGGGTKVEIK
notes: isotype hIgG1-297A (IgG1 N297A); kappa germline VK1-12.7
B3: Antibody 1G (antibody, IgG1, V domains shown)
VH: QVQLVQSGAEVKKPGASVKVSCKASGYTFTSYGISWVRQAPGQGLEWMGWISAYNGNTNYAQKLQGRVTMTTDTSTSTAYMELRSLRSDDTAVYYCARLGATVAYFDLWGRGTLVTVSS
VL: EIVLTQSPATLSVSPGERATLSCRASQSVSSNLAWYQQKPGQAPRLLIYGASTRATGIPARFSGSGSGTEFTLTISSLQSEDFAVYYCQQDVYWPFTFGGGTKVEIK
notes: isotype hIgG1-297A (IgG1 N297A); kappa germline VK3-15.10
B4: Antibody 2A (antibody, IgG1, V domains shown)
VH: QVQLVQSGAEVKKPGASVKVSCKASGYTFTSYYIHWVRQAPGQGLEWMGIINPSGGSTSYAQKFQGRVTMTRDTSTSTVYMELSSLRSEDTAVYYCARATWEALHYWGQGTLVTVSS
VL: B3 VL with L4M, S30G, D91Y, V92Y, Y93A, F96R
notes: isotype hIgG1-297A (IgG1 N297A); kappa germline VK3-15.1
B5: Antibody 3B (antibody, IgG1, V domains shown)
VH: QVQLVQSGAEVKKPGASVKVSCKASGYTFTSYYMHWVRQAPGQGLEWMGIINPSGGSTSYAQKFQGRVTMTRDTSTSTVYMELSSLRSEDTAVYYCARPSGDYSGYDALDVWGQGTMVTVSS
VL: B3 VL with V13L, N32Y, G50D, T53N, E70D, Q79E, S80P, V92P, F96I
notes: isotype hIgG1-297A (IgG1 N297A); kappa germline VK3-11.0
B6: Antibody 3A (antibody, IgG1, V domains shown)
VH: QVQLVQSGAEVKKPGASVKVSCKASGYTFTSYYMHWVRQAPGQGLEWMGIINPGGGSTSYAQKFQGRVTMTRDTSTSTVYMELSSLRSEDTAVYYCARDAGHDYGDMAYWGQGTLVTVSS
VL: DIQMTQSPSTLSASVGDRVTITCRASQSISSWLAWYQQKPGKAPKLLIYKASSLESGVPSRFSGSGSGTEFTLTISSLQPDDFATYYCQQYRSFPTFGGGTKVEIK
notes: isotype hIgG1-297A (IgG1 N297A); kappa germline VK1-05.6
B7: BTN3A1-Fc (recombinant human BTN3A1 Fc-chimera, HEK293-expressed, R&D Systems) (Fc fusion, not shown: a dimerising Fc or GST)
chain: not shown

These binders were tested against T1, BTN3A3-Fc (recombinant human BTN3A3 Fc-chimera, HEK293-expressed, R&D Systems) (human, UniProt O00478 30-248) (assay: Octet isoform binding screen).
T1 construct: Bought Fc-chimera; Biotinylated for the yeast display selections; not shown: Fc part of the bought Fc-chimera
T1 sequence (O00478 30-248, change not shown): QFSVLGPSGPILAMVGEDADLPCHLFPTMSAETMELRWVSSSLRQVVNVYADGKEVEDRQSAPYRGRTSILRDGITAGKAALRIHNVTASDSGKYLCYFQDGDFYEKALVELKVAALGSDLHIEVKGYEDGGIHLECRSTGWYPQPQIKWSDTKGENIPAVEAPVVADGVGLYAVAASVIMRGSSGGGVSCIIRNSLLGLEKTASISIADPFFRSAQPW
B1: no binding. B2: no binding.

Each binder was assayed against T2, BTN2A2-Fc (recombinant human BTN2A2 Fc-chimera, HEK293-expressed, R&D Systems) (human, UniProt Q8WVV5 33-265) (assay: Octet isoform binding screen).
T2 construct: Bought Fc-chimera; Biotinylated for the yeast display selections; not shown: Fc part of the bought Fc-chimera
T2 sequence (looked up): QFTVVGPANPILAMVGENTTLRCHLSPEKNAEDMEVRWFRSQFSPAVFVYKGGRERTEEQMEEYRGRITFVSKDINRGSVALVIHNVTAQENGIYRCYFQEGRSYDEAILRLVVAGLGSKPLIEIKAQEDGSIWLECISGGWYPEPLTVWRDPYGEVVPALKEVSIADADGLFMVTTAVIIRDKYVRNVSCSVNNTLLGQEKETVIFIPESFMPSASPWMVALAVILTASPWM
B3: no binding. B4: no binding. B5: no binding. B1: no binding. B2: no binding. B6: no binding.

The binders below were run against T3, BTN3A2-Fc (recombinant human BTN3A2 Fc-chimera, HEK293-expressed, R&D Systems) (human, UniProt P78410 30-248) (assay: Octet isoform binding screen).
T3 construct: Bought Fc-chimera; Biotinylated for the yeast display selections; not shown: Fc part of the bought Fc-chimera
T3 sequence (P78410 30-248, change not shown): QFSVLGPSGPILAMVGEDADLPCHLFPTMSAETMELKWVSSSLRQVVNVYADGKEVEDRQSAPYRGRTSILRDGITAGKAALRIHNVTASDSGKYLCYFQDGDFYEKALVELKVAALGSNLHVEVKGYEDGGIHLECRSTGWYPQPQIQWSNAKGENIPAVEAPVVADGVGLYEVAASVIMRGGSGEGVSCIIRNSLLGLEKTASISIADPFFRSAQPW
B4: no binding. B1: no binding. B2: no binding. B6: no binding.

The binders below were run against anti-BTN3A antibody (clone 20.1, Biolegend, catalog #342702) (assay: cell-based or functional assay).
B7 was tested, and the “IC50 (read off the curve): inhibition of 20.1-mediated reactivation of latent HIV (luciferase RLU)” value was ~0.2 µg/mL.

These binders were tested against T1, BTN3A3-Fc (recombinant human BTN3A3 …) (assay: binding affinity, method not stated (Octet named in text)).
B3 was tested, and the Kd was 1.13 nM. In the case of B4, the Kd is reported as 8.52 nM. With B5 the Kd was 2.08 nM. B6 gave a Kd of 1.4 nM.

The binders below were run against B7 in the same assay as above.
B3 was tested, and the Kd was 0.974 nM. Binder B4 has a Kd of 4.38 nM. B5 showed a Kd of 2.1 nM. Binder B1 has a Kd of 1.53 nM. With B2 the Kd was 3.94 nM. With B6 the Kd was 2.76 nM.

What follows are binders tested against T3, BTN3A2-Fc (recombinant human BTN3A2 …) in the same assay as above.
With B3 the Kd was 2.71 nM. B5 gave a Kd of 4.57 nM.
